The supplement of paper PMC10567573

B1: WDFY1 (parent)
chain: LLIPKEDGVITASEDRTIRVWLKR

Variants of: B1
Experiment: protein stability index of a GFP-peptide fusion (GPS, HEK-293T) (PSI 1-6); higher = more stable
Conditions: c terminus: a fixed tail appended
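Note: lentivirally expressed fusions sorted by FACS into six bins by GFP to DsRed ratio, PSI derived from sequencing read proportions per bin multiplied by bin number.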

Variant	protein stability index
S13H	1.91
S13P	1.66
S13M	1.45
S13I	2.57
S13K	2.06
S13E	1.5
S13Y	2.08
T11H	2.56
T11P	2.65
T11N	1.82
T11M	1.5
T11V	2.19
T11K	2.03
T11S	2.42
T11E	2.26
I10Y	1.91
I10H	1.94
I10K	2.17
I10F	2.42
I10R	2.07
I10A	2.4
W21L	2.78
W21E	3.37
W21Q	4.25

Variant	protein stability index
W21T	2.46
W21M	2.06
W21S	2.8
W21H	3.17
W21R	2.77
A12F	1.91
A12P	2.76
A12Y	2.66
A12G	1.93
A12L	2.1
A12H	2.08
A12C	1.77
A12D	2.39
I3R	2.71
I3H	2.45
I3Q	2.66
I3F	2.04
I3T	2.91
I3L	2.76
G8E	1.31
G8N	2.07
G8M	1.14
G8V	1.58
G8P	2.41

Variant	protein stability index
G8W	1.94
G8F	1.48
D7K	1.56
D7P	1.66
D7Q	2.1
D7G	1.77
D7Y	1.3
D7A	2.06
D7L	2.05
D7T	2.37
L2W	1.76
L2N	2.77
L2Q	3.1
L2D	3.47
L2T	2.08
L2C	2.5
L2P	2.66
L2G	2.37
I18H	2.34
I18V	2.61
I18T	2.89
I18R	3.55
K5T	1.62
K5W	1.41

Variant	protein stability index
K5I	2.28
K5S	1.2
K5L	1.36
K5Q	1.57
K5C	2.26
R24W	2.01
R24H	2.03
R24F	2.44
R24S	2.18
R24P	2.07
E14I	2.76
E14W	1
E14D	3.39
E14C	2.41
E14V	1.9
E14M	2.62
E14T	1.73
P4Q	1.5
P4D	2.82
P4A	2.13
P4G	1.74
R16M	2.19
R16V	1.95
R16H	1.6

Variant	protein stability index
R16Q	2.2
R16D	2.6
R16L	2.22
R16P	2.37
R16C	1.6
K23P	2.15
K23T	2.62
K23Q	1.4
K23A	1.79
K23S	2.1
K23G	1.83
K23N	2.63
V9F	1.81
V9S	2.74
V9H	2.48
V9I	2.77
V9R	2.33
V9Q	2.56
V9N	2.44
V9T	2.14
D15Q	2.32
D15Y	2.97
D15C	1.1
D15P	2.17

Variant	protein stability index
T17Q	2.02
T17Y	1.33
T17W	2.16
T17F	2.12
T17P	2.51
T17H	3.16
T17A	2.74
E6R	1.63
E6V	1.42
E6Q	3.73
E6Y	2.4
E6W	1.66
E6G	2.56
E6H	2.67
E6L	3.18
L22C	2.48
L22P	4.22
L22S	2.79
L22M	3.01
L22Y	2.83
L22H	2.75
L1W	1.73
L1T	3.62
L1A	2.5

Variant	protein stability index
L1F	2.24
L1D	3.54
L1M	3.12
L1N	3.1
L1S	2.93
L1V	2.56
L1H	2.83
L1C	2.35
L1E	3.2
R19S	1.91
R19D	2.28
R19P	2.45
R19E	1.92
R19A	2.03
R19N	1.83
R19L	1.31
R19C	2.5
R19W	1.71
V20Y	1.87
V20L	2.29
V20M	1.66
V20P	2.44
V20S	2.15
